We go through 37 sequences from the supplement of paper PMC7877785.

± gives the uncertainty stated by the source.

The nature of this series: self-splicing fitness, log relative to wild type (ln ratio); higher = more splicing; Tetrahymena group I intron in knt gene, E. coli kanamycin selection, DiMSum; sequences stand for … in CUCUCU…GGAGGGAAAAGUUAUCAGGCAUGCACCUGGUAGCUAGUCUUUAAACCAAUAGAUUGCAUCGGUUUAAAAGGCAAGACCGUCAAAUUGCGGGAAAGGGGUCAACAGCCGUUCAGUACCAAGUCUCAGGGGAAACUUUGAGAUGGCCUUGCAAAGGGUAUGGUAAUAAGCUGACGGACAUGGUCCUAACCACGCAGCCAAGUCCUAAGUCAACAGAUCUUCUGUUGAUAUGGAUGCAGUUCACAGACUAAAUGUCGGUCGGGGAAGAUGUAUUCUUCUCAUAAGAUAUAGUCGGACCUCUCCUUAAUGGGAGCUAGCGGAUGAAGUGAUGCAACACUGGAGCCGCUGGGAACUAAUUUGUAUGCGAAAGUAUAUUGAUUAGUUUUGGAGUACUCGUGGUCG
In short, it runs like this: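 Colonies from six replicate transformations of E. coli BL21(DE3) were pooled and amplicon-sequenced on an Illumina HiSeq 2500. The library placed an intron with all eight P1ex-region nucleotides randomised inside the knt kanamycin-resistance gene on pET-22b(+), and cells grew overnight at 37°C or 30°C on LB agar with or without 25 μg/mL kanamycin (plus 100 μg/mL carbenicillin, 50 μM IPTG, 0.2% rhamnose). Fitness is the DiMSum error-weighted combination of wild-type-normalised replicate fold changes, kanamycin versus none.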

With UGAUAGCAAUAUUACGUUAA, the “self-splicing fitness (ln)” value (30 °C) is -2.02 ± 0.21 and the “self-splicing fitness (ln)” value (37 °C) was -2.15 ± 0.26.

For UGAUAGCAAUAUUACGUUAC, the “self-splicing fitness (ln)” value was -3.01 ± 0.31 (30 °C) and -1.08 ± 0.22 (37 °C).

As to UGCAAGCAAUAUUACGAAAG, the “self-splicing fitness (ln)” value is -2.6 ± 0.12 (30 °C) and -1.53 ± 0.13 (37 °C).

As for UGCAAGCAAUAUUACGAACA, the “self-splicing fitness (ln)” value is, setting by setting: (30 °C) -1.23 ± 0.094; (37 °C) 0.193 ± 0.13.

Consider UGCAAGCAAUAUUACGAACU, for which the “self-splicing fitness (ln)” value (30 °C) is -0.489 ± 0.14 and the “self-splicing fitness (ln)” value (37 °C) was found to be 0.0308 ± 0.12.

As for UGCAAGCAAUAUUACGACAG, the “self-splicing fitness (ln)” value is -0.739 ± 0.066 (30 °C) and -0.13 ± 0.092 (37 °C).

With UGCAAGCAAUAUUACGACCC, the “self-splicing fitness (ln)” value is -2.05 ± 0.49 (30 °C) and 0.223 ± 0.43 (37 °C).

With UGCAAGCAAUAUUACGAGCC, the “self-splicing fitness (ln)” value was -1.39 ± 0.11 (30 °C) and -1.52 ± 0.14 (37 °C).

Regarding UGCAAGCAAUAUUACGAUCG, the “self-splicing fitness (ln)” value by setting is: (30 °C) -0.2 ± 0.07; (37 °C) 0.647 ± 0.093.

Turning to UGCAAGCAAUAUUACGAUUU, the “self-splicing fitness (ln)” value was -1.16 ± 0.09 (30 °C) and -1.05 ± 0.1 (37 °C).

In the case of UGCAAGCAAUAUUACGCAAG, the “self-splicing fitness (ln)” value is -2.59 ± 0.17 (30 °C) and -3.02 ± 0.32 (37 °C).

For the sequence UGCAAGCAAUAUUACGCACU, the “self-splicing fitness (ln)” value (30 °C) is -2.92 ± 0.13 and the “self-splicing fitness (ln)” value (37 °C) is -1.28 ± 0.1.

Take UGCAAGCAAUAUUACGCAUU: the “self-splicing fitness (ln)” value by setting is: (30 °C) -4.37 ± 0.27; (37 °C) -3.61 ± 0.26.

Consider UGCAAGCAAUAUUACGCGGA, for which the “self-splicing fitness (ln)” value is -2.23 ± 0.12 (30 °C) and -0.795 ± 0.12 (37 °C).

As to UGCAAGCAAUAUUACGCUUA, the “self-splicing fitness (ln)” value was -1.2 ± 0.092 (30 °C) and -0.639 ± 0.092 (37 °C).

As for UGCAAGCAAUAUUACGGAAA, the “self-splicing fitness (ln)” value by setting is: (30 °C) -1.82 ± 0.17; (37 °C) -2.45 ± 0.22.

Regarding UGCAAGCAAUAUUACGGCAU, the “self-splicing fitness (ln)” value runs as follows: (30 °C) -3.05 ± 0.29; (37 °C) -2.1 ± 0.19.

Consider UGCAAGCAAUAUUACGGCCG, for which the “self-splicing fitness (ln)” value reads like this: (30 °C) -0.266 ± 0.075; (37 °C) 0.134 ± 0.099.

Turning to UGCAAGCAAUAUUACGGCGA, the “self-splicing fitness (ln)” value by setting is: (30 °C) -0.0647 ± 0.094; (37 °C) -0.21 ± 0.11.

For UGCAAGCAAUAUUACGGGGA, the “self-splicing fitness (ln)” value was -3.21 ± 0.33 (30 °C) and -1.32 ± 0.15 (37 °C).

Take UGCAAGCAAUAUUACGGGGU: the “self-splicing fitness (ln)” value is, setting by setting: (30 °C) -3.13 ± 0.15; (37 °C) -2.75 ± 0.14.

Regarding UGCAAGCAAUAUUACGGGUA, the “self-splicing fitness (ln)” value was -0.497 ± 0.084 (30 °C) and 0.0384 ± 0.095 (37 °C).

On to UGCAAGCAAUAUUACGGUAC, for which the “self-splicing fitness (ln)” value was -4.35 ± 0.39 (30 °C) and -2.38 ± 0.21 (37 °C).

Turning to UGCAAGCAAUAUUACGGUCA, the “self-splicing fitness (ln)” value is 0.0812 ± 0.064 (30 °C) and -0.169 ± 0.065 (37 °C).

UGCAAGCAAUAUUACGUAGA: the “self-splicing fitness (ln)” value was -1.35 ± 0.072 (30 °C) and -0.944 ± 0.1 (37 °C).

As to UGCAAGCAAUAUUACGUCGC, the “self-splicing fitness (ln)” value is -2.86 ± 0.43 (30 °C) and -2.36 ± 0.49 (37 °C).

In the case of UGCAAGCAAUAUUACGUCGG, the “self-splicing fitness (ln)” value reads like this: (30 °C) -2.03 ± 0.086; (37 °C) -0.943 ± 0.1.

In the case of UGCAAGCAAUAUUACGUCUG, the “self-splicing fitness (ln)” value (30 °C) was -1.34 ± 0.08 and the “self-splicing fitness (ln)” value (37 °C) was -0.432 ± 0.1.

Regarding UGCAAGCAAUAUUACGUGAU, the “self-splicing fitness (ln)” value (30 °C) was -3.33 ± 0.082 and the “self-splicing fitness (ln)” value (37 °C) is -2.13 ± 0.093.

Turning to UGCAAGCAAUAUUACGUGCG, the “self-splicing fitness (ln)” value is -2.86 ± 0.18 (30 °C) and -1.94 ± 0.18 (37 °C).

As for UGCAAGCAAUAUUACGUGUG, the “self-splicing fitness (ln)” value runs as follows: (30 °C) -2.69 ± 0.098; (37 °C) -2.81 ± 0.14.

With UGCAAGCAAUAUUACGUUAC, the “self-splicing fitness (ln)” value was -2.91 ± 0.27 (30 °C) and -2.41 ± 0.24 (37 °C).

UGCCAGCAAUAUUACGAAGG: the “self-splicing fitness (ln)” value is -3.59 ± 0.27 (30 °C) and -2.6 ± 0.3 (37 °C).

As to UGCCAGCAAUAUUACGAUAC, the “self-splicing fitness (ln)” value runs as follows: (30 °C) -3.95 ± 0.25; (37 °C) -2.29 ± 0.25.

In the case of UGCCAGCAAUAUUACGAUUU, the “self-splicing fitness (ln)” value is -4.1 ± 0.23 (30 °C) and -1.54 ± 0.14 (37 °C).

In the case of UGCCAGCAAUAUUACGCCAU, the “self-splicing fitness (ln)” value (30 °C) is -3.3 ± 0.28 and the “self-splicing fitness (ln)” value (37 °C) was -2.48 ± 0.26.

UGCCAGCAAUAUUACGCCCC: the “self-splicing fitness (ln)” value reads like this: (30 °C) -2.29 ± 0.26; (37 °C) -1.44 ± 0.29.
